Experimental findings from patent publication US20200040081A1 (SURFACE ONCOLOGY, published 2020) are described below.

Experiment [1] has as its target T1, human CD112R over-expressed on Jurkat cells (human, UniProt Q6DKI7 1-326).
T1 construct: whole, on cells; also called Jurkat-CD112R OE; PVRIG
T1 sequence (looked up): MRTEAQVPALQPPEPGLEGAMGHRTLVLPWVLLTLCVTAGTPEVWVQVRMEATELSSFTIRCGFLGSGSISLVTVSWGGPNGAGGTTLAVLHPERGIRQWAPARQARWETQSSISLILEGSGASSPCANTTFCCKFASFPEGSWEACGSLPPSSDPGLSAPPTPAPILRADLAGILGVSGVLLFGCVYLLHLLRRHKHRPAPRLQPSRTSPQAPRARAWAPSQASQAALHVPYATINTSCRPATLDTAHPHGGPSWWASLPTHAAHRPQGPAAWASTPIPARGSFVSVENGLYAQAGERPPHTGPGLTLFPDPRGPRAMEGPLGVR
The experiment can be described thus: flow cytometry on Jurkat cells over-expressing human CD112R, 0.63 ug/mL antibody. As for the experimental part: The ability of anti-CD112R antibodies to bind to CD112R expressed on cells was evaluated. 1×10⁵ Jurkat cells (acute T cell leukemia cell line, ATCC # TIB-152) that were either wild type or engineered to over-express human CD112R (Jurkat-CD112R OE) were added to each well of a 96-well V bottom plate and stained with either anti-CD112R antibodies or an IgG1 isotype control (0.63 μg/mL) for 1 hour at 4° C. Cells were washed twice with PBS+2% FCS and resuspended with Alexa Fluor® 647 anti-human IgG Fc antibody (Biolegend, Cat #409320) diluted 1:100 in PBS+2% FCS and incubated at 4° C. for 30 minutes. Cells were subsequently washed twice and resuspended in PBS+2% FCS. Cellular data was acquired using a LSRFortessa X-20 (BD Biosciences) and analyzed with FlowJo software (Tree Star).
Results are depicted in FIG. 1. Quantitation of antibody binding to Jurkat-CD112R OE cells was assessed by the geometric mean fluorescent intensity (gMFI) of the Alexa Fluor® 647 signal.
On the technique in general: Flow cytometry measures light scatter and fluorescence of single cells or particles in a stream.

For experiment [2], the target named is T2, mouse CD112R over-expressed on 293T cells (mouse).
T2 construct: whole, on cells; also called 293T.mCD112R; 293T-mouse CD112R
The experiment can be described thus: flow cytometry on 293T cells over-expressing mouse CD112R. As for the experimental part: The ability of anti-CD112R antibodies to bind to mouse CD112R was evaluated on cells overexpressing mouse CD112R. 0.8×10⁵ 293T cells (ATCC CRL-3216) that were engineered to overexpress mouse CD112R (293T.mCD112R) were added to each well of a 96-well V bottom plate and stained with either anti-CD112R antibodies or an IgG1 isotype control at a starting concentration of […], with 3-fold serial dilutions for 30 minutes at 4° C. Cells were washed twice with PBS+2% FCS and resuspended with Alexa Fluor® 647 anti-human IgG Fc antibody (Biolegend, Cat #409320) diluted 1:100 in PBS+2% FCS and incubated at 4° C. for 20 minutes. Cells were subsequently washed twice and resuspended in PBS+2% FCS. Cellular data was acquired using a LSRFortessa X-20 (BD Biosciences) and analyzed with FlowJo software (Tree Star).
Results are depicted in FIG. 17 and Table 11. Quantitation of antibody binding to 293T.mCD112R cells was assessed by the geometric mean fluorescent intensity (gMFI) of the Alexa Fluor® 647 signal.

B1: Antibody 38 (antibody, V domains shown)
VH: EVQLLESGGGLVQPGGSLRLSCAASGFTFSGHLMSWVRQAPGKGLEWVSAISGSAGETYYADSVKGRFTISRDNSKNTLYLQMNSLRAEDTAVYYCARDAYYDDWSGWADWYFDLWGRGTLVTVSS
VL: EIVLTQSPATLSLSPGERATLSCRASQSVSRYLAWYQQKPGQAPRLLIYDASNRATGIPARFSGSGSGTDFTLTISSLEPEDFAVYYCQQVSLLPPTFGGGTKVEIK
notes: Tested as IgG detected with anti-human IgG Fc, compared with an IgG1 isotype control; also called antibody clone number 38; clone 38
For B1, the “Jurkat-CD112R over-expressed (OE) gMFI (fold increase over isotype)” value in experiment [1] turned out to be 51.7 fold.

B2: Antibody 2 (antibody, V domains shown)
VH: EVQLVESGGGLVKPGGSLRLSCAASGFTFSEYTMNWVRQAPGKGLEWVSAIVGSGDSTYYADSVKGRFTISRDNSKNTLYLQMNSLRAEDTAVYYCAKDYSSGDWIDYGMDVWGQGTTVTVSS
VL: DIQMTQSPSSLSASVGDRVTITCQASQDISNYLNWYQQKPGKAPKLLIYDASNLATGVPSRFSGSGSGTDFTFTISSLQPEDIATYYCQQFDLLPPTFGGGTKVEIK
notes: Tested as IgG detected with anti-human IgG Fc, compared with an IgG1 isotype control; also called antibody clone number 2; clone 2
With B2, in experiment [1], the “Jurkat-CD112R over-expressed (OE) gMFI (fold increase over isotype)” value worked out at 63.9 fold.

B3: Antibody 5 (antibody, V domains shown)
VH: EVQLLESGGGLVQPGGSLRLSCAASGFTFSDYAMIWVRQAPGKGLEWVSAISGGGESTYYADSVKGRFTISRDNSKNTLYLQMNSLRAEDTAVYYCAKDYSSGDWIDYGMDVWGQGTTVTVSS
VL: DIQMTQSPSSLSASVGDRVTITCQASQDISNYLNWYQQKPGKAPKLLIYDASNLATGVPSRFSGSGSGTDFTFTISSLQPEDIATYYCQQFDLLPPTFGGGTKVEIK
notes: Tested as IgG detected with anti-human IgG Fc, compared with an IgG1 isotype control; also called antibody clone number 5; clone 5
With B3, the “Jurkat-CD112R over-expressed (OE) gMFI (fold increase over isotype)” value in experiment [1] was found to be 63.3 fold.

B4: Antibody 10 (antibody, V domains shown)
VH: EVQLVESGGGLVQPGRSLRLSCAASGFTFDDYAVHWVRQAPGKGLEWVSGISWSSGLIGYADSVKGRFTISRDNAKNSLYLQMNSLRAEDTAVYYCAKGPPTYQDYFDLWGRGTLVTVSS
VL: EIVLTQSPATLSLSPGERATLSCRASQSVSRYLAWYQQKPGQAPRLLIYDASNRATGIPARFSGSGSGTDFTLTISSLEPEDFAVYYCQQVSFFPPITFGGGTKVEIK
notes: Tested as IgG detected with anti-human IgG Fc, compared with an IgG1 isotype control; also called antibody clone number 10; clone 10
On to B4, for which, in experiment [1], the “Jurkat-CD112R over-expressed (OE) gMFI (fold increase over isotype)” value turned out to be 55.7 fold.

B5: Antibody 32 (antibody, V domains shown)
VH: QVQLVQSGAEVKKPGSSVKVSCKASGGTFSSYAISWVRQAPGQGLEWMGGIIPISGTANYAQKFQGRVTITADESTSTAYMELSSLRSEDTAVYYCARDTGRGYTRHFWFDPWGQGTLVTVSS
VL: DIQMTQSPSSLSASVGDRVTITCRASQSISSYLNWYQQKPGKAPKLLIYAASSLQSGVPSRFSGSGSGTDFTLTISSLQPEDFATYYCQQSDILYTFGGGTKVEIK
notes: Tested as IgG detected with anti-human IgG Fc, compared with an IgG1 isotype control; Parent of antibodies 33, 34, 35 and 36; also called antibody clone number 32; parent clone 32
On to B5, for which the “Jurkat-CD112R over-expressed (OE) gMFI (fold increase over isotype)” value in experiment [1] amounted to 27.9 fold. The “293T-mouse CD112R gMFI (fold increase over isotype)” value in experiment [2] came to 14.9 fold.

B6: Antibody 46 (antibody, V domains shown)
VH: EVQLVESGGGLVQPGRSLRLSCTASGFTFGDYAMSWFRQAPGKGLEWVGFIGSKAYGGTTEYTASVKGRFTISRDGSKSIAYLQMNSLKTEDTAVYYCARGPRRYTYGMDVWGQGTTVTVSS
VL: DIQMTQSPSSLSASVGDRVTITCRASQSISSYLNWYQQKPGKAPKLLIYAASSLQSGVPSRFSGSGSGTDFTLTISSLQPEDFATYYCQQSSTPLTFGGGTKVEIK
notes: also called antibody clone number 46; clone 46
On to B6, for which the “Jurkat-CD112R over-expressed (OE) gMFI (fold increase over isotype)” value in experiment [1] was determined as 23.8 fold. Moreover, the “293T-mouse CD112R gMFI (fold increase over isotype)” value in experiment [2] worked out at 74.8 fold.

B7: Antibody 58 (antibody, V domains shown)
VH: EVQLVESGGGLVQPGRSLRLSCTASGFTFGDYAMSWFRQAPGKGLEWVGFIGSKFYGGETEYTASVKGRFTISRDGSKSIAYLQMNSLKTEDTAVYYCARGPRRYTYGMDVWGQGTTVTVSS
VL: DIQMTQSPSSLSASVGDRVTITCRASQSISSYLNWYQQKPGKAPKLLIYAASSLQSGVPSRFSGSGSGTDFTLTISSLQPEDFATYYCQQSSTPLTFGGGTKVEIK
notes: Tested as IgG detected with anti-human IgG Fc, compared with an IgG1 isotype control; also called antibody clone number 58; clone 58
As to B7, the “Jurkat-CD112R over-expressed (OE) gMFI (fold increase over isotype)” value in experiment [1] worked out at 37.3 fold. The “293T-mouse CD112R gMFI (fold increase over isotype)” value in experiment [2] turned out to be 79.4 fold.

B8: Antibody 36 (antibody, V domains shown)
VH: QVQLVQSGAEVKKPGSSVKVSCKASGGTFATYAISWVRQAPGQGLEWMGGIFPLSGTANYAQKFQGRVTITADESTSTAYMELSSLRSEDTAVYYCARDTGRGYTRHFWFDPWGQGTLVTVSS
VL: DIQMTQSPSSLSASVGDRVTITCRASQSISSYLNWYQQKPGKAPKLLIYAASSLQSGVPSRFSGSGSGTDFTLTISSLQPEDFATYYCQQSDILYTFGGGTKVEIK
notes: Tested as IgG detected with anti-human IgG Fc, compared with an IgG1 isotype control; also called antibody clone number 36; clone 36
In the case of B8, the “Jurkat-CD112R over-expressed (OE) gMFI (fold increase over isotype)” value in experiment [1] was found to be 31 fold. The “293T-mouse CD112R gMFI (fold increase over isotype)” value in experiment [2] turned out to be 76.3 fold.

B9: Antibody 35 (antibody, V domains shown)
VH: QVQLVQSGAEVKKPGSSVKVSCKASGGTFSSAAISWVRQAPGQGLEWMGNIIPIVGIANYAQKFQGRVTITADESTSTAYMELSSLRSEDTAVYYCARDTGRGYTRHFWFDPWGQGTLVTVSS
VL: DIQMTQSPSSLSASVGDRVTITCRASQSISSYLNWYQQKPGKAPKLLIYAASSLQSGVPSRFSGSGSGTDFTLTISSLQPEDFATYYCQQSDILYTFGGGTKVEIK
notes: Tested as IgG detected with anti-human IgG Fc, compared with an IgG1 isotype control; also called antibody clone number 35; clone 35
Take B9: the “Jurkat-CD112R over-expressed (OE) gMFI (fold increase over isotype)” value in experiment [1] came to 32.1 fold. Further, in experiment [2], the “293T-mouse CD112R gMFI (fold increase over isotype)” value was 55.6 fold.

B10: Antibody 34 (antibody, V domains shown)
VH: QVQLVQSGAEVKKPGSSVKVSCKASGGTFSSAAISWVRQAPGQGLEWMGGIFPISGHANYAQKFQGRVTITADESTSTAYMELSSLRSEDTAVYYCARDTGRGYTRHFWFDPWGQGTLVTVSS
VL: DIQMTQSPSSLSASVGDRVTITCRASQSISSYLNWYQQKPGKAPKLLIYAASSLQSGVPSRFSGSGSGTDFTLTISSLQPEDFATYYCQQSDILYTFGGGTKVEIK
notes: Tested as IgG detected with anti-human IgG Fc, compared with an IgG1 isotype control; also called antibody clone number 34; clone 34
For the molecule B10, the “Jurkat-CD112R over-expressed (OE) gMFI (fold increase over isotype)” value in experiment [1] was found to be 33.8 fold. In experiment [2], the “293T-mouse CD112R gMFI (fold increase over isotype)” value turned out to be 72.2 fold.

B11: Antibody 33 (antibody, V domains shown)
VH: QVQLVQSGAEVKKPGSSVKVSCKASGGTFGNYAISWVRQAPGQGLEWMGGIIPIPGIANYAQKFQGRVTITADESTSTAYMELSSLRSEDTAVYYCARDTGRGYTRHFWFDPWGQGTLVTVSS
VL: DIQMTQSPSSLSASVGDRVTITCRASQSISSYLNWYQQKPGKAPKLLIYAASSLQSGVPSRFSGSGSGTDFTLTISSLQPEDFATYYCQQSDILYTFGGGTKVEIK
notes: Tested as IgG detected with anti-human IgG Fc, compared with an IgG1 isotype control; also called antibody clone number 33; clone 33
Take B11: the “Jurkat-CD112R over-expressed (OE) gMFI (fold increase over isotype)” value in experiment [1] was found to be 34.2 fold. Besides, in experiment [2], the “293T-mouse CD112R gMFI (fold increase over isotype)” value was found to be 73.3 fold.

B12: Antibody 44 (antibody, V domains shown)
VH: QVQLVQSGAEVKKPGSSVKVSCKASGGTFDNYYISWVRQAPGQGLEWMGGIFPIFGTANYAQKFQGRVTITADESTSTAYMELSSLRSEDTAVYYCAREVGHYSGSPYYMDVWGKGTTVTVSS
VL: DIQMTQSPSTLSASVGDRVTITCRASQSINSWLAWYQQKPGKAPKLLISDASSLESGVPSRFSGSGSGTEFTLTISSLQPDDFATYYCQQVGPYLTFGGGTKVEIK
notes: Tested as IgG detected with anti-human IgG Fc, compared with an IgG1 isotype control; also called antibody clone number 44; clone 44
On to B12, for which the “Jurkat-CD112R over-expressed (OE) gMFI (fold increase over isotype)” value in experiment [1] was determined as 46.9 fold.

B13: Antibody 15 (antibody, V domains shown)
VH: EVQLVESGGGLVQPGRSLRLSCTASGFTFGDVAMSWFRQAPGKGLEWVGYIGSKAYGGETEYTASVKGRFTISRDGSKSIAYLQMNSLKTEDTAVYYCARAGHSYGSIASNWFDPWGQGTLVTVSS
VL: DIQMTQSPSSLSASVGDRVTITCRASQSISSYLNWYQQKPGKAPKLLIYGASSLQSGVPSRFSGSGSGTDFTLTISSLQPEDFATYYCQQGFYTPWTFGGGTKVEIK
notes: Tested as IgG detected with anti-human IgG Fc, compared with an IgG1 isotype control; also called antibody clone number 15; clone 15
Regarding B13, the “Jurkat-CD112R over-expressed (OE) gMFI (fold increase over isotype)” value in experiment [1] is 53.2 fold.
